The series in a line: circular dichroism. The conditions noted are these: 20 mM sodium phosphate, 10 mM NaF; pH 8; 20 °C; 50 uM. Background: CD spectra are sensitive to the conformation of chiral molecules.

This passage reports helicity results from article PMC10411625, “Rationally designed stapled peptides allosterically inhibit PTBP1–RNA-binding” (Chemical Science, 2023).

`CC(=O)N[C@@H](CC(N)=O)C(=O)N[C@@H](CCC(N)=O)C(=O)N[C@@]1(C)CCCCCCCC[C@@](C)(C(=O)N[C@@H](C)C(=O)N[C@@H](CC(C)C)C(=O)N[C@@H](CCC(N)=O)C(=O)N[C@@H](C)C(=O)N[C@H](C(=O)N[C@@H](CC(N)=O)C(N)=O)C(C)C)NC(=O)[C@H](CCC(N)=O)NC(=O)[C@H](C)NC(=O)[C@H](CCCNC(=N)N)NC1=O` returned a helicity of 92.3%.

Molecule `CC(=O)N[C@@H](CC(N)=O)C(=O)N[C@@H](CCC(N)=O)C(=O)N[C@@]1(C)CCCC=CCCC[C@]2(CCCC=CCCC[C@](C)(C(=O)N[C@H](C(=O)N[C@@H](CC(N)=O)C(N)=O)C(C)C)NC(=O)[C@H](CCC(N)=O)NC(=O)[C@H](CC(C)C)NC(=O)[C@H](C)NC2=O)NC(=O)[C@H](CCC(N)=O)NC(=O)[C@H](C)NC(=O)[C@H](CCNC(=N)N)NC1=O` gave a helicity of 100%.

On to Ac-NQARAQAALQAVNR-NH2, for which the helicity was determined as 20.2%.

`CC(=O)N[C@@H](CC(N)=O)C(=O)N[C@@H](CCC(N)=O)C(=O)N[C@@]1(C)CCCC=CCCC[C@]2(CCCC=CCCC[C@](C)(C(=O)N[C@H](C(=O)N[C@@H](CC(=O)O)C(N)=O)C(C)C)NC(=O)[C@H](CCC(N)=O)NC(=O)[C@H](CC(C)C)NC(=O)[C@H](C)NC2=O)NC(=O)[C@H](CCC(N)=O)NC(=O)[C@H](C)NC(=O)[C@H](CCCNC(=N)N)NC1=O` yielded a helicity of 98.2%.

`CC(=O)N[C@H](C(=O)N[C@@H](CCC(N)=O)C(=O)N[C@@]1(C)CCCC=CCCC[C@]2(CCCC=CCCC[C@](C)(C(=O)N[C@H](C(=O)N[C@@H](CC(N)=O)C(N)=O)C(C)C)NC(=O)[C@H](CCC(N)=O)NC(=O)[C@H](CC(C)C)NC(=O)[C@H](C)NC2=O)NC(=O)[C@H](CCC(N)=O)NC(=O)[C@H](C)NC(=O)[C@H](CCCNC(=N)N)NC1=O)C(C)C`: the helicity was determined as 100%.

`CC(=O)N[C@@H](CC(N)=O)C(=O)N[C@@H](CCC(N)=O)C(=O)N[C@@]1(C)CCCC=CCCC[C@]2(CCCC=CCCC[C@](C)(C(=O)N[C@H](C(=O)N[C@@H](CC(N)=O)C(N)=O)C(C)C)NC(=O)[C@H](CCC(N)=O)NC(=O)[C@H](CC(N)=O)NC(=O)[C@H](C)NC2=O)NC(=O)[C@H](CCC(N)=O)NC(=O)[C@H](C)NC(=O)[C@H](CCCNC(=N)N)NC1=O`: the helicity was 100%.

Consider `CC(=O)N[C@@H](CC(N)=O)C(=O)N[C@@H](CCC(N)=O)C(=O)N[C@@]1(C)CCCC=CCCC[C@]2(CCCC=CCCC[C@](C)(C(=O)N[C@H](C(=O)N[C@@H](CC(N)=O)C(N)=O)C(C)C)NC(=O)[C@H](CCC(N)=O)NC(=O)[C@H](CC(C)C)NC(=O)[C@H](C)NC2=O)NC(=O)[C@H](CCC(N)=O)NC(=O)[C@H](C)NC(=O)[C@H](CCCNC(=N)N)NC1=O`, for which the helicity was 100%.

On to `CC(=O)N[C@@H](CC(N)=O)C(=O)N[C@@H](CCC(N)=O)C(=O)N[C@@H](C)C(=O)N[C@@H](CCCNC(=N)N)C(=O)N[C@@H](C)C(=O)N[C@@H](CCC(N)=O)C(=O)N[C@@]1(C)CCCCCCCC[C@@](C)(C(=O)N[C@H](C(=O)N[C@@H](CC(N)=O)C(N)=O)C(C)C)NC(=O)[C@H](CCC(N)=O)NC(=O)[C@H](CC(C)C)NC(=O)[C@H](C)NC1=O`, for which the helicity was found to be 57.8%.

Consider `CC(=O)N[C@@H](CC(N)=O)C(=O)N[C@@H](CCC(N)=O)C(=O)N[C@@H](C)C(=O)N[C@@H](CCCNC(=N)N)C(=O)N[C@@H](C)C(=O)N[C@@]1(C)CCCCCCCC[C@@](C)(C(=O)N[C@@H](C)C(=O)N[C@H](C(=O)N[C@@H](CC(N)=O)C(N)=O)C(C)C)NC(=O)[C@H](CC(C)C)NC(=O)[C@H](C)NC(=O)[C@H](C)NC1=O`, for which the helicity stood at 77.3%.
